The source of these data is publication PMC8748714 (2022).

No end group written: not given here.

As a reminder, the IC50 is the point on the concentration scale where inhibition reaches its midpoint.

The target in one assay is T1, GLP-1R K202A (Homo sapiens).
T1 chain: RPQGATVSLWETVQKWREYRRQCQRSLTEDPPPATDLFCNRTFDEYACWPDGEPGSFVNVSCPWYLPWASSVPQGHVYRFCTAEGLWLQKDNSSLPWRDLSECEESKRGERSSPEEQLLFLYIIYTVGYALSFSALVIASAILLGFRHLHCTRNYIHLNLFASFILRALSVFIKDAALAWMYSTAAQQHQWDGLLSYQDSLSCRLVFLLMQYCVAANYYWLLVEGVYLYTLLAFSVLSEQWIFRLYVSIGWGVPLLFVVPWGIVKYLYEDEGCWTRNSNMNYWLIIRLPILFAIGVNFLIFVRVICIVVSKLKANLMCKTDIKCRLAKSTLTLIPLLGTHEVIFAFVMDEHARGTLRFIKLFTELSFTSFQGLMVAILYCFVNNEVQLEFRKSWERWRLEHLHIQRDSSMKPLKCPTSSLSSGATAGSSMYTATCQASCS

In a further assay the target is T2, GLP-1R E138A (Homo sapiens).
T2 chain: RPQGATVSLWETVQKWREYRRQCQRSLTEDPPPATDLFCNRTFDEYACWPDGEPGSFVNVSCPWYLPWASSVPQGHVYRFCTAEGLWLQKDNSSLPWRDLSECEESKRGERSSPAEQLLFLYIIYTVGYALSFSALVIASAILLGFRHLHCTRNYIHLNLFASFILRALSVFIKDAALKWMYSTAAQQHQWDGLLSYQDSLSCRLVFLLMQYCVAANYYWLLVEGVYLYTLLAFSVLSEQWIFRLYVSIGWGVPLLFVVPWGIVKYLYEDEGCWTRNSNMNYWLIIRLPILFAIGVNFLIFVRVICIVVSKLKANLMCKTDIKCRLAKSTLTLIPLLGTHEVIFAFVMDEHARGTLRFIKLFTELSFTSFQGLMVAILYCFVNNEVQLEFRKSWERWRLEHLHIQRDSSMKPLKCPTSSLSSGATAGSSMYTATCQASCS

In another assay the target is T3, GLP-1R S206A (Homo sapiens).
T3 chain: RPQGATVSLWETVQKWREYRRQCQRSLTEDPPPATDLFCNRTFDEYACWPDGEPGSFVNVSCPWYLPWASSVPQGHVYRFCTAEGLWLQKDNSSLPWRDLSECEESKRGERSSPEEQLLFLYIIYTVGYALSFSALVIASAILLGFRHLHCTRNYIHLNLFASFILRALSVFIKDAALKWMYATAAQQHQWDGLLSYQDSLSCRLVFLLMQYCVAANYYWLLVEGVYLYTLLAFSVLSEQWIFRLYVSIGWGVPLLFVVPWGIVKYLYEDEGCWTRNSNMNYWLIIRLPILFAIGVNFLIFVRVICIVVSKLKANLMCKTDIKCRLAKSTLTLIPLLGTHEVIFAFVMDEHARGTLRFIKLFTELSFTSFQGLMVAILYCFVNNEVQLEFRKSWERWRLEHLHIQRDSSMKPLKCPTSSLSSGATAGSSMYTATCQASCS

For the next assay, the target named is T4, GLP-1R S193A (Homo sapiens).
T4 chain: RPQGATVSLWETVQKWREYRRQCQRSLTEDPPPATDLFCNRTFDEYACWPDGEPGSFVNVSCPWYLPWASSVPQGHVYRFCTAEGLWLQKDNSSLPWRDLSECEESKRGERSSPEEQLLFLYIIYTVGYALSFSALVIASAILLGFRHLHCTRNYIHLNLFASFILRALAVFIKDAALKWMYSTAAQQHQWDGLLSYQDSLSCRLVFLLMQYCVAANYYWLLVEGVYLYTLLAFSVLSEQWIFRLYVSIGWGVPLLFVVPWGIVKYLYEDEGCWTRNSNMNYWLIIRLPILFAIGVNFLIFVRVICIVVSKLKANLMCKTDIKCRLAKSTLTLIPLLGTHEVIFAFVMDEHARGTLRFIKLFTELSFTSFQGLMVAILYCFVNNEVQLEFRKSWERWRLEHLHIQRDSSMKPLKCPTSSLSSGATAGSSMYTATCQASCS

The target in a further assay is T5, GLP-1R H212A (Homo sapiens).
T5 chain: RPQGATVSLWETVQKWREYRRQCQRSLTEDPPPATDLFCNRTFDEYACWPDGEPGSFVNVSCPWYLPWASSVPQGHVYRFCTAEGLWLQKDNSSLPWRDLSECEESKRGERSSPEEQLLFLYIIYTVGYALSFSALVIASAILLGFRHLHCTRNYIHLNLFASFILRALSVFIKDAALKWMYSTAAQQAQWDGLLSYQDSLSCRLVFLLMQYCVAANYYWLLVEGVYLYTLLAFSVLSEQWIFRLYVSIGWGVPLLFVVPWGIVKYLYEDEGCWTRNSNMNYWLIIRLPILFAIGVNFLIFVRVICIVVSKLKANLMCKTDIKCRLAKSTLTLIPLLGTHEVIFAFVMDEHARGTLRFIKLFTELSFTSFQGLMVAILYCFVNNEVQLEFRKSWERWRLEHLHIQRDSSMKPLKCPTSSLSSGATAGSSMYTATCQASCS

A further assay has as its target T6, GLP-1R V194A (Homo sapiens).
T6 chain: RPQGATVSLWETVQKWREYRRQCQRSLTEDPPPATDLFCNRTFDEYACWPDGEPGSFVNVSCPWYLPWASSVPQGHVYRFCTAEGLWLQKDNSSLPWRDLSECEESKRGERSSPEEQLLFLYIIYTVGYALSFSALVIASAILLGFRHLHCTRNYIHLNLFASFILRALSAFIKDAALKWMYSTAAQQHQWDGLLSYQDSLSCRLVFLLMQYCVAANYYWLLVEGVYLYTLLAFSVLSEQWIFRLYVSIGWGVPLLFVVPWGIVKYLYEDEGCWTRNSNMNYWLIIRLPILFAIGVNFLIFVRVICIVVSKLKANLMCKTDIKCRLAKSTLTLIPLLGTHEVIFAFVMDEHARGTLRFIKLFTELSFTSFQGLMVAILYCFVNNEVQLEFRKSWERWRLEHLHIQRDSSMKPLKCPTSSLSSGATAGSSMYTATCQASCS

In the case of HSQGTFTSDYSKYLDSRRAQDFVQWLMNTKRNRNNIA [oxyntomodulin], the IC50 is 191 nM in the assay with GLP-1R K202A; 45.7 nM with GLP-1R E138A; 16.6 nM with GLP-1R S206A; 14.8 nM in the assay with GLP-1R S193A; 12.9 nM in the assay with GLP-1R H212A; 77.6 nM in the assay with GLP-1R V194A.

As to HAEGTFTSDVSSYLEGQAAKEFIAWLVKGR (not fully specified (C-terminus)) [glucagon-like peptide-1], the IC50 came to 6.03 nM with GLP-1R K202A; 6.92 nM with GLP-1R E138A; 4.9 nM in the assay with GLP-1R S206A; 5.01 nM in the assay with GLP-1R S193A; 1.23 nM in the assay with GLP-1R H212A; 6.17 nM in the assay with GLP-1R V194A.
